Results taken from article PMC6386705.
Like-named read-outs stand apart in the source and are kept apart here.

What was measured:
HuR RRM12 = HuR RRM12 (human, UniProt Q15717 2-189); experiment: ITC
HuR RRM3 FY = HuR RRM3 FY (human, UniProt Q15717 241-326, F247A;Y249A); experiment: NMR
HuR RRM3 W261E [1] = target: T1, HuR RRM3 W261E (human, UniProt Q15717 241-326, W261E); experiment: NMR
HuR RRM3 [2] = target: T2, HuR RRM3 (human, UniProt Q15717 241-326); experiment: ITC
HuR RRM3 [3] = target: T2, HuR RRM3; experiment: NMR
HuR RRM3 [4] = target: T2, HuR RRM3; experiment: ITC; remark: listed apart in the source
HuR RRM3 [5] = target: T2, HuR RRM3; experiment: NMR; remark: listed apart in the source
HuR RRM3 [6] = target: T2, HuR RRM3; experiment: ITC; remark: listed apart in the source
HuR RRM3 W261E [7] = target: T1, HuR RRM3 W261E; experiment: ITC
HuR RRM3 [8] = target: T2, HuR RRM3; experiment: ITC; remark: listed apart in the source
HuR RRM3 [9] = target: T2, HuR RRM3; experiment: ITC; remark: listed apart in the source
HuR RRM3 [10] = target: T2, HuR RRM3; experiment: NMR; remark: listed apart in the source

T2 sequence (Q15717 241-326): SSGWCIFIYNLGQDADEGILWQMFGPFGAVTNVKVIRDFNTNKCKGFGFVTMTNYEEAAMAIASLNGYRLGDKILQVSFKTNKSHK
T1 sequence (Q15717 241-326 W261E): as the sequence (Q15717 241-326) above, with W21E counted along it
HuR RRM12, sequence (Q15717 2-189): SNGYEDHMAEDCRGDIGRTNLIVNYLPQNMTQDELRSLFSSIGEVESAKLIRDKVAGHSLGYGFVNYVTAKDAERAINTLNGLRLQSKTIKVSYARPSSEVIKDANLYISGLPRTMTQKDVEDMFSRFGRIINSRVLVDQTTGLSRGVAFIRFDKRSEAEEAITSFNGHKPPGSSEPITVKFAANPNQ
HuR RRM3 FY, sequence (Q15717 241-326 F247A/Y249A): as the sequence (Q15717 241-326) above, with F7A, Y9A counted along it

B1: c-fos ARE 11-mer (ssRNA)
RNA: AUUUUUAUUUU
HuR RRM12
  Kd: 0.14 µM
HuR RRM3 FY
  binding result: no binding
HuR RRM3 W261E [1]
  binding result: binds
HuR RRM3 [2]
  Kd: 0.65 µM

B2: UUUUA (ssRNA)
RNA: UUUUA
HuR RRM3 [3]
  binding result: binds

B3: AUUUUU (ssRNA)
RNA: AUUUUU
HuR RRM3 [4]
  Kd: 4.03 ± 0.25 µM

B4: AUUAU (ssRNA)
RNA: AUUAU
HuR RRM3 [5]
  binding result: binds

B5: UUAUU (ssRNA)
RNA: UUAUU
HuR RRM3 [3]
  binding result: binds

B6: UUUUUU (ssRNA)
RNA: UUUUUU
HuR RRM3 [6]
  Kd: 3.58 ± 0.21 µM
HuR RRM3 W261E [7]
  binding result: binds

B7: UUUAUU (ssRNA)
RNA: UUUAUU
HuR RRM3 [8]
  Kd: 5.6 ± 0.4 µM

B8: AUUAUU (ssRNA)
RNA: AUUAUU
HuR RRM3 [9]
  Kd: 5.75 ± 0.27 µM

B9: AUUUU (ssRNA)
RNA: AUUUU
HuR RRM3 [3]
  binding result: binds

B10: UUUUU (ssRNA)
RNA: UUUUU
HuR RRM3 [10]
  binding result: binds
